The values below come from paper PMC3223260 (Biochimica et biophysica acta, 2011).

B1: C-domain with the linker region of IF3mt (IF3mt(C+L)) (domain or fragment, human, UniProt Q9H2K0 131-278, looked up)
chain: MTGLQILQERQRLREMEKANPKTGPTLRKELILSSNIGQHDLDTKTKQIQQWIKKKHLVQITIKKGKNVDVSENEMEEIFHQILQTMPGIATFSSRPQAVQGGKALMCVLRAFSKNEEKAYKETQETQERDTLNKDHGNDKESNVLHQ
B2: IF3mt lacking the N- and C-terminal extensions (IF3mtΔNC) (domain or fragment, human, UniProt Q9H2K0 61-245, looked up)
chain: TQNEGKKTKKNKTAFSNVGRKISQRVIHLFDEKGNDLGNMHRANVIRLMDERDLRLVQRNTSTEPAEYQLMTGLQILQERQRLREMEKANPKTGPTLRKELILSSNIGQHDLDTKTKQIQQWIKKKHLVQITIKKGKNVDVSENEMEEIFHQILQTMPGIATFSSRPQAVQGGKALMCVLRAFSK

Targets include PTCD3 (bovine (endogenous in bovine …, UniProt Q2KI62 38-688)); MRPS29 (bovine (endogenous in bovine …, UniProt P82922 18-397)); MRPS18-2 (bovine (endogenous in bovine …, UniProt P82918 36-258)).
Holding throughout (assay): cross-linking
Assay [1] deals with B1.
For assay [2], the target named is Full length mature human mitochondrial translational initiation factor 3 (IF3mt) (human, UniProt Q9H2K0 32-278).
Assay [3] has as its target B2.

Sequence of PTCD3 (bovine (Q2KI62 38-688): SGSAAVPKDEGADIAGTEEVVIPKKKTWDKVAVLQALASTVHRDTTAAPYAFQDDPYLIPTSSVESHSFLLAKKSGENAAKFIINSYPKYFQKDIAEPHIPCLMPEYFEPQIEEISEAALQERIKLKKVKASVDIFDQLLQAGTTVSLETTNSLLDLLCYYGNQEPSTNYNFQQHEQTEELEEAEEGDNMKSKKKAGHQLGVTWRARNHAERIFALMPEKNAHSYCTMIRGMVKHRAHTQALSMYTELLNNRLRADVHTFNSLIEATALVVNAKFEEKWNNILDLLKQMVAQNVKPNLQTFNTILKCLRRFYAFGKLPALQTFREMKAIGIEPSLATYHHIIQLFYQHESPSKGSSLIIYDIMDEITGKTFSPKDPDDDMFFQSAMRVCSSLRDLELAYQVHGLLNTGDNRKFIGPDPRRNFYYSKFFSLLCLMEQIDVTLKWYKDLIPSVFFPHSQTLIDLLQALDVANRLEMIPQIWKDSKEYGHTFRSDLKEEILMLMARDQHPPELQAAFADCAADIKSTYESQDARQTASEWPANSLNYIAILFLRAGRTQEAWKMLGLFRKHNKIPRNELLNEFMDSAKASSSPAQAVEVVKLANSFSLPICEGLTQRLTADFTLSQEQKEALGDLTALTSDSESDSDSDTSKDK

As to B1, the binding result with PTCD3 and in the assay with MRPS29 was “binds” in each case.
With B2, the binding result with PTCD3, in the assay with MRPS29 and with MRPS18-2 was “binds” each time.

B3: MRPS36 (natural protein, UniProt P82908 1-103, looked up)
chain: MMGSKMASASRVVQVVKPHTPLIRFPDRRDNPKPNVSEVLRSAGLPSHTSSISQHSKGSKSPDWLMHQGPPDTAEMIKTLPQKYRRKLVSQEEIEFIQRGGPE
With B3, the binding result in assay [1] and in assay [2] was “binds” in each case.

B4: MRPS32 (natural protein, UniProt P82927 33-142, looked up)
chain: KSTYSSLPDDYNCKVELALTSDARTIVCYHPSVDIPYEHTKPIPRPDPVHNNEETHDLVLKTRLEEKSEHLEQGPMIEQLSKMFFTTKHRWYPRGQYHRRRRKLNPPKDR
With B4, the binding result in assay [1], in assay [3] and in assay [2] was “binds” in each case.
